Data: patent US20240024504A1, “SITE-SELECTIVE LYSINE ACETYLATION OF HUMAN IMMUNOGLOBULIN G AND IgG-RELATED PRODUCTS FOR IMMUNOTHERAPY” (The Chinese University of Hong Kong, priority 2022, published 2024)

Target: Atezolizumab
Assay: microscale thermophoresis instrument, ligand-induced fluorescence change; f-F0 held at 10 nM, the concentration axis is that of atezolizumab

peptide f-F0 (FITC-labeled parental Fc-III peptide F0, disulfide bond replaced by a thioether bond)
EC50 (read off the curve): 20 nM
